Data: FireProtDB (doi:10.1126/science.aai7825)

Conditions: Escherichia coli (strain K12); pH 7.5; Thermal; Intensity; HEPES 20mM; transition: 2; whole UniProt chain shown

Protein | Tm [°C]
Transcriptional repressor MprA wild type, P0ACR9 (protein) MDSSFTPIEQMLKFRASRHEDFPYQEILLTRLCMHMQSKLLENRNKMLKAQGINETLFMALITLESQENHSIQPSELSCALGSSRTNATRIADELEKRGWIERRESDNDRRCLHLQLTEKGHEFLREVLPPQHNCLHQLWSALSTTEKDQLEQITRKLLSRLDQMEQDGVVLEAMS | 45.9
Uncharacterized protein YjaG wild type, P32680 (protein) MLQNPIHLRLERLESWQHVTFMACLCERMYPNYAMFCQQTGFGDGQIYRRILDLIWETLTVKDAKVNFDSQLEKFEEAIPSADDFDLYGVYPAIDACVALSELVHSRLSGETLEHAVEVSKTSITTVAMLEMTQAGREMSDEELKENPAVEQEWDIQWEIFRLLAECEERDIELIKGLRADLREAGESNIGIIFQQ | 46.1
HTH-type transcriptional repressor PurR wild type, P0ACP7 (protein) MATIKDVAKRANVSTTTVSHVINKTRFVAEETRNAVWAAIKELHYSPSAVARSLKVNHTKSIGLLATSSEAAYFAEIIEAVEKNCFQKGYTLILGNAWNNLEKQRAYLSMMAQKRVDGLLVMCSEYPEPLLAMLEEYRHIPMVVMDWGEAKADFTDAVIDNAFEGGYMAGRYLIERGHREIGVIPGPLERNTGAGRLAGFMKAMEEAMIKVPESWIVQGDFEPESGYRAMQQILSQPHRPTAVFCGGDIMAMGALCAADEMGLRVPQDVSLIGYDNVRNARYFTPALTTIHQPKDSLGETAFNMLLDRIVNKREEPQSIEVHPRLIERRSVADGPFRDYRR | 45.6
Multidrug efflux pump subunit AcrA wild type, P0AE06 (protein) MNKNRGFTPLAVVLMLSGSLALTGCDDKQAQQGGQQMPAVGVVTVKTEPLQITTELPGRTSAYRIAEVRPQVSGIILKRNFKEGSDIEAGVSLYQIDPATYQATYDSAKGDLAKAQAAANIAQLTVNRYQKLLGTQYISKQEYDQALADAQQANAAVTAAKAAVETARINLAYTKVTSPISGRIGKSNVTEGALVQNGQATALATVQQLDPIYVDVTQSSNDFLRLKQELANGTLKQENGKAKVSLITSDGIKFPQDGTLEFSDVTVDQTTGSITLRAIFPNPDHTLLPGMFVRARLEEGLNPNAILVPQQGVTRTPRGDATVLVVGADDKVETRPIVASQAIGDKWLVTEGLKAGDRVVISGLQKVRPGVQVKAQEVTADNNQQAASGAQPEQSKS | 45.7
Enoyl-[acyl-carrier-protein] reductase [NADH] FabI wild type, P0AEK4 (protein) MGFLSGKRILVTGVASKLSIAYGIAQAMHREGAELAFTYQNDKLKGRVEEFAAQLGSDIVLQCDVAEDASIDTMFAELGKVWPKFDGFVHSIGFAPGDQLDGDYVNAVTREGFKIAHDISSYSFVAMAKACRSMLNPGSALLTLSYLGAERAIPNYNVMGLAKASLEANVRYMANAMGPEGVRVNAISAGPIRTLAASGIKDFRKMLAHCEAVTPIRRTVTIEDVGNSAAFLCSDLSAGISGEVVHVDGGFSIAAMNELELK | 45.3
Transcriptional regulatory protein PhoP wild type, P23836 (protein) MRVLVVEDNALLRHHLKVQIQDAGHQVDDAEDAKEADYYLNEHIPDIAIVDLGLPDEDGLSLIRRWRSNDVSLPILVLTARESWQDKVEVLSAGADDYVTKPFHIEEVMARMQALMRRNSGLASQVISLPPFQVDLSRRELSINDEVIKLTAFEYTIMETLIRNNGKVVSKDSLMLQLYPDAELRESHTIDVLMGRLRKKIQAQYPQEVITTVRGQGYLFELR | 42.6
Ribosomal protein uL3 glutamine methyltransferase wild type, P39199 (protein) MDKIFVDEAVNELQTIQDMLRWSVSRFSAANIWYGHGTDNPWDEAVQLVLPSLYLPLDIPEDMRTARLTSSEKHRIVERVIRRVNERIPVAYLTNKAWFCGHEFYVDERVLVPRSPIGELINNKFAGLISKQPQHILDMCTGSGCIAIACAYAFPDAEVDAVDISPDALAVAEQNIEEHGLIHNVIPIRSDLFRDLPKVQYDLIVTNPPYVDAEDMSDLPNEYRHEPELGLASGTDGLKLTRRILGNAADYLADDGVLICEVGNSMVHLMEQYPDVPFTWLEFDNGGDGVFMLTKEQLIAAREHFAIYKD | 45.5
Pyruvate formate-lyase 1-activating enzyme wild type, P0A9N4 (protein) MSVIGRIHSFESCGTVDGPGIRFITFFQGCLMRCLYCHNRDTWDTHGGKEVTVEDLMKEVVTYRHFMNASGGGVTASGGEAILQAEFVRDWFRACKKEGIHTCLDTNGFVRRYDPVIDELLEVTDLVMLDLKQMNDEIHQNLVGVSNHRTLEFAKYLANKNVKVWIRYVVVPGWSDDDDSAHRLGEFTRDMGNVEKIELLPYHELGKHKWVAMGEEYKLDGVKPPKKETMERVKGILEQYGHKVMF | 43.4
Homoserine O-succinyltransferase wild type, P07623 (protein) MPIRVPDELPAVNFLREENVFVMTTSRASGQEIRPLKVLILNLMPKKIETENQFLRLLSNSPLQVDIQLLRIDSRESRNTPAEHLNNFYCNFEDIQDQNFDGLIVTGAPLGLVEFNDVAYWPQIKQVLEWSKDHVTSTLFVCWAVQAALNILYGIPKQTRTEKLSGVYEHHILHPHALLTRGFDDSFLAPHSRYADFPAALIRDYTDLEILAETEEGDAYLFASKDKRIAFVTGHPEYDAQTLAQEFFRDVEAGLDPDVPYNYFPHNDPQNTPRASWRSHGNLLFTNWLNYYVYQITPYDLRHMNPTLD | 45.7
Ribosome-recycling factor wild type, P0A805 (protein) MISDIRKDAEVRMDKCVEAFKTQISKIRTGRASPSLLDGIVVEYYGTPTPLRQLASVTVEDSRTLKINVFDRSMSPAVEKAIMASDLGLNPNSAGSDIRVPLPPLTEERRKDLTKIVRGEAEQARVAVRNVRRDANDKVKALLKDKEISEDDDRRSQDDVQKLTDAAIKKIEAALADKEAELMQF | 44.4
Nicotinate phosphoribosyltransferase wild type, P18133 (protein) MTQFASPVLHSLLDTDAYKLHMQQAVFHHYYDVHVAAEFRCRGDDLLGIYADAIREQVQAMQHLRLQDDEYQWLSALPFFKADYLNWLREFRFNPEQVTVSNDNGKLDIRLSGPWREVILWEVPLLAVISEMVHRYRSPQADVAQALDTLESKLVDFSALTAGLDMSRFHLMDFGTRRRFSREVQETIVKRLQQESWFVGTSNYDLARRLSLTPMGTQAHEWFQAHQQISPDLANSQRAALAAWLEEYPDQLGIALTDCITMDAFLRDFGVEFASRYQGLRHDSGDPVEWGEKAIAHYEKLGIDPQSKTLVFSDNLDLRKAVELYRHFSSRVQLSFGIGTRLTCDIPQVKPLNIVIKLVECNGKPVAKLSDSPGKTICHDKAFVRALRKAFDLPHIKKAS | 45.7
Acyl-CoA thioester hydrolase YciA wild type, P0A8Z0 (protein) MSTTHNVPQGDLVLRTLAMPADTNANGDIFGGWLMSQMDIGGAILAKEIAHGRVVTVRVEGMTFLRPVAVGDVVCCYARCVQKGTTSVSINIEVWVKKVASEPIGQRYKATEALFKYVAVDPEGKPRALPVE | 46.3
NADPH-dependent 7-cyano-7-deazaguanine reductase wild type, Q46920 (protein) MSSYANHQALAGLTLGKSTDYRDTYDASLLQGVPRSLNRDPLGLKADNLPFHGTDIWTLYELSWLNAKGLPQVAVGHVELDYTSVNLIESKSFKLYLNSFNQTRFNNWDEVRQTLERDLSTCAQGKISVALYRLDELEGQPIGHFNGTCIDDQDITIDNYEFTTDYLENATCGEKVVEETLVSHLLKSNCLITHQPDWGSLQIQYRGRQIDREKLLRYLVSFRHHNEFHEQCVERIFNDLLRFCQPEKLSVYARYTRRGGLDINPWRSNSDFVPSTTRLVRQ | 43.9
NH(3)-dependent NAD(+) synthetase wild type, P18843 (protein) MTLQQQIIKALGAKPQINAEEEIRRSVDFLKSYLQTYPFIKSLVLGISGGQDSTLAGKLCQMAINELRLETGNESLQFIAVRLPYGVQADEQDCQDAIAFIQPDRVLTVNIKGAVLASEQALREAGIELSDFVRGNEKARERMKAQYSIAGMTSGVVVGTDHAAEAITGFFTKYGDGGTDINPLYRLNKRQGKQLLAALACPEHLYKKAPTADLEDDRPSLPDEVALGVTYDNIDDYLEGKNVPQQVARTIENWYLKTEHKRRPPITVFDDFWKK | 45.1
Zinc chaperone YeiR wild type, P33030 (protein) MTRTNLITGFLGSGKTTSILHLLAHKDPNEKWAVLVNEFGEVGIDGALLADSGALLKEIPGGCMCCVNGLPMQVGLNTLLRQGKPDRLLIEPTGLGHPKQILDLLTAPVYEPWIDLRATLCILDPRLLLDEKSASNENFRDQLAAADIIVANKSDRTTPESEQALQRWWQQNGGDRQLIHSEHGKVDGHLLDLPRRNLAELPASAAHSHQHVVKKGLAALSLPEHQRWRRSLNSGQGYQACGWIFDADTVFDTIGILEWARLAPVERVKGVLRIPEGLVRINRQGDDLHIETQNVAPPDSRIELISSSEADWNALQSALLKLRLATTA | 46.2
tRNA pseudouridine synthase D wild type, Q57261 (protein) MIEFDNLTYLHGKPQGTGLLKANPEDFVVVEDLGFEPDGEGEHILVRILKNGCNTRFVADALAKFLKIHAREVSFAGQKDKHAVTEQWLCARVPGKEMPDLSAFQLEGCQVLEYARHKRKLRLGALKGNAFTLVLREVSNRDDVEQRLIDICVKGVPNYFGAQRFGIGGSNLQGAQRWAQTNTPVRDRNKRSFWLSAARSALFNQIVAERLKKADVNQVVDGDALQLAGRGSWFVATTEELAELQRRVNDKELMITAALPGSGEWGTQREALAFEQAAVAAETELQALLVREKVEAARRAMLLYPQQLSWNWWDDVTVEIRFWLPAGSFATSVVRELINTTGDYAHIAE | 43.8
Acetylornithine deacetylase wild type, P23908 (protein) MKNKLPPFIEIYRALIATPSISATEEALDQSNADLITLLADWFKDLGFNVEVQPVPGTRNKFNMLASIGQGAGGLLLAGHTDTVPFDDGRWTRDPFTLTEHDGKLYGLGTADMKGFFAFILDALRDVDVTKLKKPLYILATADEETSMAGARYFAETTALRPDCAIIGEPTSLQPVRAHKGHISNAIRIQGQSGHSSDPARGVNAIELMHDAIGHILQLRDNLKERYHYEAFTVPYPTLNLGHIHGGDASNRICACCELHMDIRPLPGMTLNELNGLLNDALAPVSERWPGRLTVDELHPPIPGYECPPNHQLVEVVEKLLGAKTEVVNYCTEAPFIQTLCPTLVLGPGSINQAHQPDEYLETRFIKPTRELITQVIHHFCWH | 45.9
